The Human Domainome abundance scans (Beltran et al. 2025)

B1: POU domain, class 4, transcription factor 2, residues 256 to 327; numbered along this chain, Q12837 (parent)
chain: RDLEAFAERFKQRRIKLGVTQADVGSALANLKIPGVGSLSQSTICRFESLTLSHNNMIALKPILQAWLEEAE
B2: Retinoic acid receptor beta, residues 85 to 161; numbered along this chain, P10826 (parent)
chain: YKPCFVCQDKSSGYHYGVSACEGCKGFFRRSIQKNMIYTCHRDKNCVINKVTRNRCQYCRLQKCFEVGMSKESVRND

Variants of: B1
Assay: abundance fitness (aPCA) (normalised: wild type 0, dead -1); higher = more abundant; growth selection in yeast, the domain comes from the species named
Conditions: Homo sapiens

Abundance fitness of substitutions, site by site:
A59: R -0.032, S -0.095, T -0.038, V -0.207, W -0.087, Y -0.026
L60: A -0.147, C -0.12, D -0.614, E -0.866, F -0.29, G -0.713, H -0.944, I 0.201, M -0.038, N -0.682, P -0.971, Q -0.843, R -0.607, S -0.77, T -0.436, W -0.729, Y -0.081
K61: A -0.178, E -0.32, F -0.38, G -0.47, H -0.137, I -0.328, L -0.148, M 0.037, N -0.393, P -0.802, Q -0.047, R 0.049, S -0.42, T -0.02, W -0.125, Y -0.237
P62: A -0.668, D -0.18, E -0.457, F -0.761, G -0.628, H -0.23, I -0.638, K -0.698, L -0.982, M -0.811, N -0.44, Q -0.623, R -0.771, S -0.465, T -0.533, V -0.726, Y -0.827
I63: A -0.03, C -0.231, D -0.438, E -0.018, F 0.164, G -0.414, H 0.07, K -0.495, L -0.217, M -0.382, N -0.628, P -0.329, Q -0.489, R -0.314, S -0.224, T -0.098, V -0.006, W -0.443, Y -0.333
L64: A -0.902, D -0.6, G -0.787, H -0.769, I -0.394, K -0.884, M -0.371, N -0.823, P -0.98, Q -0.75, R -1.08, S -0.669, T -0.769, V -0.295, W -1.11, Y -0.416
Q65: A -0.084, C -0.132, D -0.186, E 0.058, F -0.369, G -0.106, I -0.502, K -0.074, M -0.235, N -0.309, P -0.528, R -0.37, S -0.028, T -0.19, V -0.324, W -0.504
A66: C -0.378, D 0.098, E -0.007, G -0.08, H -0.153, I -0.187, K 0.004, M -0.246, P -0.524, R -0.008, T -0.096, V -0.153, W -0.138, Y -0.298
W67: Q 0.108, R -0.755
L68: A -0.483, C -0.585, D -0.617, G -0.777, M -0.461, N -0.232, P -0.589, Q -0.107, R -0.847, S -0.559, T -0.733, V -0.384, W -0.663, Y -0.372
E69: A -0.119, C -0.062, D -0.349, F -0.251, G -0.18, H -0.481, I -0.248, K -0.458, L -0.099, N -0.219, Q -0.001, R -0.211, S -0.097, T -0.133, V -0.178, Y -0.367
E70: A -0.058, C -0.102, D -0.212, F -0.543, G -0.313, H -0.666, I -0.156, K 0.076, L -0.454, M -0.332, P -0.826, R -0.075, S -0.11, T -0.231, V -0.186, W -0.45, Y -0.028
A71: D -0.614, E -0.247, F -0.02, G -0.284, H -0.223, I -0.11, K -0.125, L -0.433, M -0.4, N -0.225, P -0.671, Q -0.188, S -0.183, V -0.296, W -0.057
E72: A -0.617, D -0.425, H -0.38, T -0.498, V -0.419, Y -0.206

Variants of: B2
Assay: as above
Conditions: Homo sapiens

Abundance fitness: each site, then its substitutions
Y1: C -0.008, E -0.109, G -0.097, H 0.055, I -0.01, K 0.193, L -0.086, M 0.067, N 0.255, Q -0.132, R -0.239, T -0.109, V 0.158, W -0.221
K2: A -0.289, D 0.017, E -0.285, F -0.266, G -0.182, H 0.091, I -0.144, L -0.162, M -0.074, N 0.162, P -0.169, Q 0.052, R -0.282, S -0.068, V -0.104, W -0.308, Y -0.1
P3: A 0.064, C -0.101, D 0.225, E 0.136, F 0.037, H 0.006, I -0.042, K 0.048, L 0.027, N 0.162, Q 0.079, R -0.321, S 0.031, V -0.023, W -0.223, Y 0.174
C4: A -0.691, D -0.715, F -0.687, G -0.859, I -0.917, L -0.778, M -0.754, N -0.731, P -0.428, Q -0.889, R -0.827, T -1.26, V -0.807, W -0.954, Y -0.592
F5: A 0.053, C -0.244, D -0.314, E -0.38, G -0.118, H -0.435, I -0.022, K -0.418, L -0.076, M -0.155, N -0.39, P 0.076, Q -0.046, R -0.421, S -0.053, T -0.048, V -0.154, W -0.316, Y -0.043
V6: A -0.711, C -0.995, E -1.02, F -0.374, G -0.746, H -0.748, I -0.13, K -0.82, L -0.81, M -0.76, N -0.873, P -0.849, Q -0.926, R -0.83, S -0.907, T -0.822, W -0.795
C7: A -0.991, D -0.724, E -1.23, F -0.999, G -1.05, H -0.932, I -0.806, K -0.879, L -0.832, M -0.753, N -0.615, Q -1, S -0.868, T -0.438, V -0.879, W -0.656, Y -0.609
Q8: A 0.022, C -0.073, D 0.08, E 0.111, F -0.092, G 0.044, H 0.055, I -1.01, K 0, M 0.029, N -0.035, P -0.813, R -0.263, S 0.064, T 0.015, V -0.598, W -0.083
D9: A -0.465, C -0.525, E -0.03, F -0.65, G -0.588, H -0.543, I -0.726, K -0.722, M -0.457, N -0.828, P -1
